Consider one substance from PMC9105436.

The target of the assay is coconut protein (coconut). As to the kind of experiment: ITC; Malvern MicroCal PEAQ-ITC; cell 200 uL with the low-concentration solution, syringe with the high-concentration solution (not told which held which); 13 injections of 3 uL; both solutions dialysed; fit with two sets of constants (N1/N2, K1, K2). In general terms: ITC needs no label: the signal is the heat of the interaction.

For the substance gelatin, the K1 came to 4.33 µM, the K2 worked out at 136 µM, the N1 stood at 2.69 and the N2 turned out to be 1.51. The substance further showed a dH1 of -2.75 kcal/mol and a dH2 of -1.52 kcal/mol.
